Test [1] addresses receptor-associated protein (RAP), GST-free (UniProt P30533). The test is described as follows: ITC.
Test [2] shares this target. The test can be described thus: SEC. (In general: Size exclusion chromatography separates by hydrodynamic size, large species first.)
In test [3] the target is RAP domain 1 (D1). The test can be described thus: other fluorescence titration.
Test [4] concerns the target RAP domain 2 (D2) (UniProt P30533). The test is described as follows: other fluorescence titration.
Test [5] has as its target RAP domain 3 (D3). The test is described as follows: other fluorescence titration.
The target of test [6] is receptor-associated protein (RAP), GST-free (UniProt P30533). The test is described as follows: native gel or EMSA. For orientation: Mobility shift assays separate free from complexed probe on a gel.
Chain of receptor-associated protein (RAP), GST-free (P30533 35-357): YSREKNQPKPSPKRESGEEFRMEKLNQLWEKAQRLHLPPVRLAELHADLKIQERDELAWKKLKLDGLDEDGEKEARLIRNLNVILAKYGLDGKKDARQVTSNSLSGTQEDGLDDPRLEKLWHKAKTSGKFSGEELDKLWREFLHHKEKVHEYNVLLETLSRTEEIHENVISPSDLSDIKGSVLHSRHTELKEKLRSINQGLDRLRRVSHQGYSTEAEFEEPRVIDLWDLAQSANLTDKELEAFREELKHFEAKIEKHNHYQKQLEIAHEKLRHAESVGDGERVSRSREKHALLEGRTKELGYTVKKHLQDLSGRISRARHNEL
The target is the same in test [7]. The test is described as follows: AUC.
Test [8] has as its target RAP domain 1 (D1). The test can be described thus: other fluorescence titration. The source holds these as a separate data set.
Test [9] addresses receptor-associated protein (RAP), GST-free (UniProt P30533). The test can be described thus: other fluorescence titration.
The target in test [10] is RAP domain 2 (D2) (UniProt P30533). The test can be described thus: other fluorescence titration. This is another data set of the same source.
The target in test [11] is RAP domain 3 (D3). The test is described as follows: other fluorescence titration. This is another data set of the same source.
Test [12] deals with CR56, LRP fragment containing domains CR5 and CR6 (UniProt Q07954). The test is described as follows: ITC. Background: ITC needs no label: the signal is the heat of the interaction.
Chain of CR56, LRP fragment containing domains CR5 and CR6 (UniProt Q07954) (Q07954 932-1013): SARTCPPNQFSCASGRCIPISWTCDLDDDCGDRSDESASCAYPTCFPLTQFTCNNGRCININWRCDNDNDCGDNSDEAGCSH
Test [13] deals with CR567, LRP fragment containing domains CR5, CR6 and CR7. The test can be described thus: other fluorescence titration.
Chain of CR567, LRP fragment containing domains CR5, CR6 and CR7 (Q07954 20-4544): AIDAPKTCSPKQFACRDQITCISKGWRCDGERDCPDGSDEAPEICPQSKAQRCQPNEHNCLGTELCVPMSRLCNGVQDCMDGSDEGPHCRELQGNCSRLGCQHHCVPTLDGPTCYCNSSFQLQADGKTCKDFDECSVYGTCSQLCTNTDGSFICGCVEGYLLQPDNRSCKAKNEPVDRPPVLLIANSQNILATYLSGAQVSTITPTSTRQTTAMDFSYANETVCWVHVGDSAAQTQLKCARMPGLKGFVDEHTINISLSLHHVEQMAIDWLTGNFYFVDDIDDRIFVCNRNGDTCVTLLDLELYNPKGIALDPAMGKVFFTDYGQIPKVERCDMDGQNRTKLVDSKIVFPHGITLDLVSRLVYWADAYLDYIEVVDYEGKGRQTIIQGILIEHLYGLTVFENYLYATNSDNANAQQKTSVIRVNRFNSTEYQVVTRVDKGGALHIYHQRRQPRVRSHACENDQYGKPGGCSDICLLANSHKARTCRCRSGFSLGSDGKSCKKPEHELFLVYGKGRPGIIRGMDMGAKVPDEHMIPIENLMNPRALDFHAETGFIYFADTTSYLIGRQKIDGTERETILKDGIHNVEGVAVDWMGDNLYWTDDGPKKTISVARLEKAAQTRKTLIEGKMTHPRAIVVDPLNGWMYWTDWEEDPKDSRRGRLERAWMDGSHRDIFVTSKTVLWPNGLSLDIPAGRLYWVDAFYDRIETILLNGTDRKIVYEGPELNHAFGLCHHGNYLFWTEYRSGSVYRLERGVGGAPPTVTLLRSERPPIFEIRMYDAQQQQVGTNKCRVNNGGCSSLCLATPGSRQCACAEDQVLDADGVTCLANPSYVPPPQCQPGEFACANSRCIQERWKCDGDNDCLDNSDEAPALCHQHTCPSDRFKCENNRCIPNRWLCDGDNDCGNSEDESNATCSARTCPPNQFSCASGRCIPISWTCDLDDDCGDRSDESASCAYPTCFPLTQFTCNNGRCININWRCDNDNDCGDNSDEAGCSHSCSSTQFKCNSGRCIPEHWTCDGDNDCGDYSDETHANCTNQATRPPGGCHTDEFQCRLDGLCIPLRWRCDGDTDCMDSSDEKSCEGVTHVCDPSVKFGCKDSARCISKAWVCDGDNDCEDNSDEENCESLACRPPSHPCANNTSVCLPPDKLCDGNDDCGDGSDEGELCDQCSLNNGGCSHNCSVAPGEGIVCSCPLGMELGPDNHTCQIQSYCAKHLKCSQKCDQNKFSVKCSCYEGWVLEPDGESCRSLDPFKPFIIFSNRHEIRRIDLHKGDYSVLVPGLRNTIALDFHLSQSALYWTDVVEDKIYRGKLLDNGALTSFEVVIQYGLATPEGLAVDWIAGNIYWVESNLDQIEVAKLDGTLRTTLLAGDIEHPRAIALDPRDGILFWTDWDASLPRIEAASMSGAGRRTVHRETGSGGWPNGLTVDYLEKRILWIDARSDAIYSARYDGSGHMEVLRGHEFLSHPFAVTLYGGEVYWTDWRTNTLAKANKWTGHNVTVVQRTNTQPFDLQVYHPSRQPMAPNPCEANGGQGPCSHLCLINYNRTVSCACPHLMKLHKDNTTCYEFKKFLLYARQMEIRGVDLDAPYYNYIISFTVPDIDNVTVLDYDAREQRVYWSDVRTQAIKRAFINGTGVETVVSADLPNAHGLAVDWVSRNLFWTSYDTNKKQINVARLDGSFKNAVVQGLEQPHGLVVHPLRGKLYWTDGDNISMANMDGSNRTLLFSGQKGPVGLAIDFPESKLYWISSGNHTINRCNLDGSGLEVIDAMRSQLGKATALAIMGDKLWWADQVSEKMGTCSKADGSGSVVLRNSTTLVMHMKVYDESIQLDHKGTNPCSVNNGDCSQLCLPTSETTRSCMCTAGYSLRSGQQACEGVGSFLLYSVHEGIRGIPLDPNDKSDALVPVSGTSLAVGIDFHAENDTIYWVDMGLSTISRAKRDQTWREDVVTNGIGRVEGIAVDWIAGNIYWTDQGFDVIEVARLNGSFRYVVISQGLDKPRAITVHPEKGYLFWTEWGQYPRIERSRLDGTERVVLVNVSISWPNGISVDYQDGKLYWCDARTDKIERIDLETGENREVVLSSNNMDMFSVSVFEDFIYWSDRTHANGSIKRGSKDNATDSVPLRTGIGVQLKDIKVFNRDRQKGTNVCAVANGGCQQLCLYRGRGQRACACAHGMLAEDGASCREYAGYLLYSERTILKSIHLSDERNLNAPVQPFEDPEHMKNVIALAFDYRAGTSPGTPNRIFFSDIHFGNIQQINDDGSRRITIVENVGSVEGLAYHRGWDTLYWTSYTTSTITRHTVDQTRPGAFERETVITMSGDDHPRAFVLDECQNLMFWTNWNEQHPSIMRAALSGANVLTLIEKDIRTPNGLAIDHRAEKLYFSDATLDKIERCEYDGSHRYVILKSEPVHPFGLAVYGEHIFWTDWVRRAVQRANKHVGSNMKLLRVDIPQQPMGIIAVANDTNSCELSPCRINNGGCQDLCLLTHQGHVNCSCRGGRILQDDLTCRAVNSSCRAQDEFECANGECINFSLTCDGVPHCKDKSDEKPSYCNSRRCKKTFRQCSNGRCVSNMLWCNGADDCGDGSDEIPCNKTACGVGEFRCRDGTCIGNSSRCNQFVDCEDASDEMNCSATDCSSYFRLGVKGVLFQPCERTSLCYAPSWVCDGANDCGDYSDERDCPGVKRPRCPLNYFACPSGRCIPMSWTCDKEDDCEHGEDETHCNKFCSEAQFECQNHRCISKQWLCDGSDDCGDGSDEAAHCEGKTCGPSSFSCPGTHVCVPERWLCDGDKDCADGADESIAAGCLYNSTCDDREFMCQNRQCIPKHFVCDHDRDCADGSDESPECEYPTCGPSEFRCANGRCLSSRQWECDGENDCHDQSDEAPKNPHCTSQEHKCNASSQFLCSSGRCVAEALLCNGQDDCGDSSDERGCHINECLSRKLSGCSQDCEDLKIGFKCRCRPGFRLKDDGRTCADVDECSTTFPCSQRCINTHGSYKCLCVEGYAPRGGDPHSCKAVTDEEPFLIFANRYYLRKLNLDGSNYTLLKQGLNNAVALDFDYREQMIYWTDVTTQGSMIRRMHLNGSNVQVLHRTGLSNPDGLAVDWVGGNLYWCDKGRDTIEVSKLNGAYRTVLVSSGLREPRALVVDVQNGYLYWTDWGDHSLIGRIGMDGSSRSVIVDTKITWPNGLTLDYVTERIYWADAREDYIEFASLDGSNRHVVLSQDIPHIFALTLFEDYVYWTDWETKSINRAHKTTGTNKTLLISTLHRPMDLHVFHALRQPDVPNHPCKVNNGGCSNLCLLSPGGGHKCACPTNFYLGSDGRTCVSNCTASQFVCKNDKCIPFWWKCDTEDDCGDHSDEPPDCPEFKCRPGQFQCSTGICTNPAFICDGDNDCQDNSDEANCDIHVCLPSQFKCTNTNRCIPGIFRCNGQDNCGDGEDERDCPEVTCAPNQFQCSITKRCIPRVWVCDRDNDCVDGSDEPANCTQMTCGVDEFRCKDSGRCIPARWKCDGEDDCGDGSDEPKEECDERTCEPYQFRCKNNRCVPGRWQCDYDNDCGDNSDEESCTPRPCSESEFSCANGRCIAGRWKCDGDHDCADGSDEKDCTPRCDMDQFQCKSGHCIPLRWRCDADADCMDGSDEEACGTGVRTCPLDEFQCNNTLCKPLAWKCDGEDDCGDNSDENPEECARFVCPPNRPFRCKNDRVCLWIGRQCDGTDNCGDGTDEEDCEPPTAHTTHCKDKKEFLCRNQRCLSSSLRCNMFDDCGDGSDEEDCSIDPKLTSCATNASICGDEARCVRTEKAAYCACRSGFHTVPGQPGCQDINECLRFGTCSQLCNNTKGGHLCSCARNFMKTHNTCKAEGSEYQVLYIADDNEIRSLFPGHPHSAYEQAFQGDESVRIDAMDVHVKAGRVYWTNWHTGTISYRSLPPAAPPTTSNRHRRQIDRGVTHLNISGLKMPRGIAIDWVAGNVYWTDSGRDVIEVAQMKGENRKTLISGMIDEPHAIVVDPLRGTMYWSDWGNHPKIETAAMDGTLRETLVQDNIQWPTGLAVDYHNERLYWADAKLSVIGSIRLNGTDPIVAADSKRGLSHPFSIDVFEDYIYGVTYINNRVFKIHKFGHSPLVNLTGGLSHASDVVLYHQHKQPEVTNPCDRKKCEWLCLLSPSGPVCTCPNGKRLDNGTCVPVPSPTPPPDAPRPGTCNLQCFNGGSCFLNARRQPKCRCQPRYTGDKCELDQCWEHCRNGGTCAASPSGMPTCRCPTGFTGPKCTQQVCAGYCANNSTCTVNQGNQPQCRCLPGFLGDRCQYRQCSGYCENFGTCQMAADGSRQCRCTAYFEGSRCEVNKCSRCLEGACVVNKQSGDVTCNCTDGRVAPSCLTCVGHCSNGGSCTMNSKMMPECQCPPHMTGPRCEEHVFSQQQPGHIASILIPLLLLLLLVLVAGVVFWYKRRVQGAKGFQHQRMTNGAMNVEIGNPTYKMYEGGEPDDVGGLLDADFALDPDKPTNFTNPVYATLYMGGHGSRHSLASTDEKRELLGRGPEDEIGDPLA
Test [14] deals with CR678, LRP fragment containing domains CR6, CR7 and CR8. The test is described as follows: other fluorescence titration.
Test [15] deals with CR89, LRP fragment containing domains CR8 and CR9. The test can be described thus: other fluorescence titration.
Test [16] concerns the target CR34, LRP fragment containing domains CR3 and CR4. The test can be described thus: other fluorescence titration.
Test [17] has as its target CR78, LRP fragment containing domains CR7 and CR8. The test is described as follows: other fluorescence titration.
In test [18] the target is CR45, LRP fragment containing domains CR4 and CR5. The test is described as follows: other fluorescence titration.
Chain of CR45, LRP fragment containing domains CR4 and CR5 (Q07954 20-4544): as above
For test [19], the target named is CR345, LRP fragment containing domains CR3, CR4 and CR5. The test can be described thus: other fluorescence titration.
Test [20] addresses CR56, LRP fragment containing domains CR5 and CR6 (UniProt Q07954). The test can be described thus: other fluorescence titration.
In test [21] the target is CR456, LRP fragment containing domains CR4, CR5 and CR6. The test is described as follows: other fluorescence titration.

6 substances from PMC2708935 can be followed below.

“And” between values parts separate entries of the source, which are not always exact repeats. Identical values can stand only once. Like-named read-outs stand apart in the source and are kept apart here.

Chain of RAP domain 3 (D3) (domain or fragment) (P30533 35-357): as the sequence (P30533 35-357) above
Chain of RAP domain 1 (D1) (domain or fragment) (P30533 35-357): as above
Chain of CR56, LRP fragment containing domains CR5 and CR6 (from UniProt Q07954 932-1013) (domain or fragment) (Q07954 932-1013): as the sequence (Q07954 932-1013) above
Chain of CR78, LRP fragment containing domains CR7 and CR8 (Q07954 20-4544): as the sequence (Q07954 20-4544) above

The stoichiometry N is a count of units in the complex or per binding partner. What is called Kd is the free concentration of one partner at which half of the binding sites on the other are occupied at equilibrium, for simple one-to-one binding. Read a low Kd as higher affinity. On to “CR56, LRP fragment containing domains CR5 and CR6 (from UniProt Q07954 932-1013) (domain or fragment)”, for which, in [1], the dH (overall, two equivalents of CR56) is -39.2 kcal/mol. The stoichiometry N is 2 CR56 per RAP in test [1]; 2.1 CR56 per RAP in test [2]; 2 CR56 per RAP and 2.6 CR56 per RAP in test [7]. The dissociation constant Kd in [3] came out at 26 nM; in test [4] it was 46 nM; in [5], 41 nM; in [8], 29 nM; in test [10], 22 nM; in [11] it was 7 nM. For the same substance, the stoichiometry N (equivalents of CR per RAP) in [6] came to 2. Further, the Kd1 (site 1, fixed in the fit) in [9] was 20 nM. The Kd2 (site 2) in [9] was determined as 56 nM.
Take “CR345, LRP fragment containing domains CR3, CR4 and CR5 (domain or fragment)”: the stoichiometry N (CR345 per RAP) in [2] was 1.8; in [7] it was 2 and 2.3. In addition, the stoichiometry N (equivalents of CR per RAP) in [6] came to 2. In [9], this substance displayed a Kd1 (site 1, fixed in the fit) of 20 nM. In test [9], this substance yielded a Kd2 (site 2) of 42 nM.
For “CR456, LRP fragment containing domains CR4, CR5 and CR6 (domain or fragment)”, in test [6], the stoichiometry N (equivalents of CR per RAP) was determined as 2. Further, in [9], the Kd1 (site 1, fixed in the fit) amounted to 10 nM and the Kd2 (site 2) is 36 nM.
Consider RAP domain 1 (D1) (domain or fragment), for which the Kd in [12] was determined as 62 nM; in test [13] it was 15 nM; in test [14], 859 nM; in [15] it was 35 nM; in test [16], 38 nM; in test [17] it was 927 nM. Moreover, the Kd stood at 24 nM in test [18], 23 nM in [19] and 20 nM in test [20]. In test [12], this substance displayed a dH of -18.4 kcal/mol.
As to “RAP domain 2 (D2) (from UniProt P30533 35-357) (domain or fragment)”, the Kd in test [12] was 270 nM; in test [13] it was 18 nM; in test [14], 44 nM; in [15] it was 42 nM; in test [16], 19 nM; in test [17] it was 116 nM. In addition, the dissociation constant (Kd) was determined as 30 nM in test [18], 23 nM in test [19] and 54 nM in test [20]. The substance further showed a dH in test [12] of -8.8 kcal/mol.
As to RAP domain 3 (D3) (domain or fragment), the dissociation constant Kd in [12] came out at 77 nM; in test [13] it was 5.3 nM; in [14], 26 nM; in test [15], 20 nM; in [16], 3.5 nM; in test [21] it was 8 nM. Moreover, the Kd in test [17] was 55 nM; in test [18], 17 nM; in test [20] it was 37 nM. The substance also showed a dH in [12] of -17.1 kcal/mol.
